For seven substances, IC50 of inhibition of IL-13-induced STAT6-dependent luciferase activity in HEK293T cells transfected with human IL-4Rα and IL-13Rα1; cytokine pre-incubated with the trap and IC50 of inhibition of IL-33-induced NF-κB luciferase reporter activity in HEK293T cells transfected with human ST2; IL-33 pre-incubated 30 min with the trap (blocks IL-33 acting on ST2 of the cells) results are on record in article PMC7370943.

One test has as its target recombinant human IL-13 (human) (UniProt P35225).
UniProt P35225, sequence (P35225 25-146): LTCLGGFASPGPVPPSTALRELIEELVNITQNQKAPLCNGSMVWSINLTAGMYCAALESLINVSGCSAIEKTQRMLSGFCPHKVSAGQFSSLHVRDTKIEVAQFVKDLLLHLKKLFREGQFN
Regarding “human IL-4/13trap (from UniProt P78552 22-343; P24394 26-232) (receptor)”, the IC50 of inhibition of IL-13-induced STAT6-dependent luciferase activity in HEK293T cells transfected with human IL-4Rα and IL-13Rα1; cytokine pre-incubated with the trap was 0.434 nM.

A further test deals with T1, recombinant human IL-33 (human).
T1 sequence (O95760 whole entry, looked up): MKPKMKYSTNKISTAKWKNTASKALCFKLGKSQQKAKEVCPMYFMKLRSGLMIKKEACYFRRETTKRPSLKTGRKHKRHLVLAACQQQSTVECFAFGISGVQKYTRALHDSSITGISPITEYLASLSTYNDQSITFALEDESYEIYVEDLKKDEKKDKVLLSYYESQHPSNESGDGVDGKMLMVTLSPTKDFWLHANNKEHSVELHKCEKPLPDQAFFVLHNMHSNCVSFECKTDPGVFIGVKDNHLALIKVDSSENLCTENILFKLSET
Turning to “human IL-33trap without Fc and GGS linker (sIL-1RAcP-sST2) (from UniProt Q01638 19-328) (receptor)”, the IC50 of inhibition of IL-33-induced NF-κB luciferase reporter activity in HEK293T cells transfected with human ST2; IL-33 pre-incubated 30 min with the trap (blocks IL-33 acting on ST2 of the cells) worked out at 0.748 nM.

Turning to “human IL-33trap with 12xGGS linker and human IgG1 Fc (from UniProt Q9NPH3 21-367; Q01638 19-328) (Fc fusion)”, the IC50 of inhibition of IL-33-induced NF-κB luciferase reporter activity in HEK293T cells transfected with human ST2; IL-33 pre-incubated 30 min with the trap (blocks IL-33 acting on ST2 of the cells) is 0.057 nM.

“human IL-33trap with 7xGGS linker (sIL-1RAcP-7xGGS-sST2) (from UniProt Q01638 19-328) (receptor)”: the IC50 of inhibition of IL-33-induced NF-κB luciferase reporter activity in HEK293T cells transfected with human ST2; IL-33 pre-incubated 30 min with the trap (blocks IL-33 acting on ST2 of the cells) was found to be 0.194 nM.

“human IL-33trap with 12xGGS linker (sIL-1RAcP-12xGGS-sST2) (from UniProt Q01638 19-328) (receptor)”: the IC50 of inhibition of IL-33-induced NF-κB luciferase reporter activity in HEK293T cells transfected with human ST2; IL-33 pre-incubated 30 min with the trap (blocks IL-33 acting on ST2 of the cells) was determined as 0.042 nM.

For “human IL-33trap with 7xGGS linker and human IgG1 Fc (from UniProt Q9NPH3 21-367; Q01638 19-328) (Fc fusion)”, the IC50 of inhibition of IL-33-induced NF-κB luciferase reporter activity in HEK293T cells transfected with human ST2; IL-33 pre-incubated 30 min with the trap (blocks IL-33 acting on ST2 of the cells) turned out to be 0.067 nM.

As for “human IL-33trap without GGS linker fused to human IgG1 Fc (sIL-1RAcP-sST2-Fc) (from UniProt Q01638 19-328) (Fc fusion)”, the IC50 of inhibition of IL-33-induced NF-κB luciferase reporter activity in HEK293T cells transfected with human ST2; IL-33 pre-incubated 30 min with the trap (blocks IL-33 acting on ST2 of the cells) is 0.09 nM.
